The source of these data is IntAct's records for PubMed 18056643.

B1: Tyrosine-protein phosphatase non-receptor type 22 (Homo sapiens), Q9Y2R2 (parent)
chain: MDQREILQKFLDEAQSKKITKEEFANEFLKLKRQSTKYKADKTYPTTVAEKPKNIKKNRYKDILPYDYSRVELSLITSDEDSSYINANFIKGVYGPKAYIATQGPLSTTLLDFWRMIWEYSVLIIVMACMEYEMGKKKCERYWAEPGEMQLEFGPFSVSCEAEKRKSDYIIRTLKVKFNSETRTIYQFHYKNWPDHDVPSSIDPILELIWDVRCYQEDDSVPICIHCSAGCGRTGVICAIDYTWMLLKDGIIPENFSVFSLIREMRTQRPSLVQTQEQYELVYNAVLELFKRQMDVIRDKHSGTESQAKHCIPEKNHTLQADSYSPNLPKSTTKAAKMMNQQRTKMEIKESSSFDFRTSEISAKEELVLHPAKSSTSFDFLELNYSFDKNADTTMKWQTKAFPIVGEPLQKHQSLDLGSLLFEGCSNSKPVNAAGRYFNSKVPITRTKSTPFELIQQRETKEVDSKENFSYLESQPHDSCFVEMQAQKVMHVSSAELNYSLPYDSKHQIRNASNVKHHDSSALGVYSYIPLVENPYFSSWPPSGTSSKMSLDLPEKQDGTVFPSSLLPTSSTSLFSYYNSHDSLSLNSPTNISSLLNQESAVLATAPRIDDEIPPPLPVRTPESFIVVEEAGEFSPNVPKSLSSAVKVKIGTSLEWGGTSEPKKFDDSVILRPSKSVKLRSPKSELHQDRSSPPPPLPERTLESFFLADEDCMQAQSIETYSTSYPDTMENSTSSKQTLKTPGKSFTRSKSLKILRNMKKSICNSCPPNKPAESVQSNNSSSFLNFGFANRFSKPKGPRNPPPTWNI

Variants of B1 are the subject of the assay. The following applies: with kpcd_human PRKCD.
With S35E, the “effect of a mutation on the interaction” value is recorded as “decreasing interaction”.
